The supplement of paper PMC10567573

B1: C8orf76 (parent)
chain: YCAKLCEPQWFYEETESSDDVEVL
B2: ZNF449 (parent)
chain: QLTGHQRIHSGEEPHKCPECGKRF

Variants of: B1
Test: protein stability index of a GFP-peptide fusion (GPS, HEK-293T) (PSI 1-6); higher = more stable
Settings: c terminus: a fixed tail appended
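Note: lentivirally expressed fusions sorted by FACS into six bins by GFP to DsRed ratio, PSI derived from sequencing read proportions per bin multiplied by bin number.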

Protein stability index of substitutions, site by site:
Y1: H 4.36 | W 3.66 | N 5.01 | K 4.66 | V 4.2 | E 4.99 | F 1.91 | M 4.26 | S 4.19 | Q 4.45 | D 5.04 | A 4.42 | I 3.45 | L 3.71 | T 5.11 | R 4.92 | G 4.56 | P 4.76 | C 4.28
K4: A 2.54 | D 3.69 | G 1.98 | H 2.84 | I 2.29 | C 2.96 | F 2.56 | E 4.61
A3: H 2.59 | R 1.75 | K 3.07 | V 3.04 | Y 2.83 | L 2.78 | M 3.1 | C 2.7 | T 2.45 | Q 2.28 | S 2.78 | E 4.06 | I 2.51 | D 3.48 | N 2.74 | F 2.3 | P 1.71 | G 2.01 | W 1.95
C2: Q 2.51 | K 4.17 | M 3.62 | F 2.59 | I 2.65 | G 3.72 | Y 2.87 | E 4.91 | L 2.94 | D 4.96 | A 1.94 | W 2.82 | V 2.1 | S 3.63 | R 4.17 | N 2.91 | P 4.2 | H 1.68 | T 3.22

Variants of: B2
Test: as above
Settings: c terminus: a fixed tail appended

Protein stability index of substitutions, site by site:
C20: A 4.35 | W 4.34 | G 4.49 | H 4.46 | N 4.49 | Q 4.79 | D 5.03 | I 4.36 | Y 4.67 | V 3.71 | M 3.82 | S 4.37 | F 4.39 | R 5.4 | L 4.05 | K 4.99 | P 4.61 | T 4.87 | E 5.41
K22: N 4.16 | F 4.03 | A 4.72 | W 3.6 | Q 3.85 | E 4.62 | D 4.49 | C 4.2 | R 4 | T 4.21 | V 4.51 | Y 4.3 | L 4.29 | P 4.22 | S 4.71 | H 4.3 | I 3.73 | M 4.43
R23: D 4.99 | K 5.28 | C 3.93 | M 4.06 | S 4.83 | G 4.32 | N 3.95 | V 4.72 | L 4.74 | E 5.37 | F 3.98 | T 4.52 | A 4.91 | P 4.28 | H 4.23 | W 3.92 | Q 3.44
G21: R 4.34 | N 4.47 | L 4.6 | A 4.21 | V 4.49 | H 4.08 | C 3.77 | S 4.32 | F 4.19 | P 4.7 | Q 4.47 | D 4.36 | W 3.73 | I 4.34 | Y 3.6 | E 4.87 | M 4.53 | K 4.41 | T 4.47
F24: I 3.65 | G 4.7 | Q 4.62 | H 4.84 | N 4.4 | Y 4.58 | M 4.13 | T 4.83 | C 5.12 | L 4.64 | E 4.88 | A 5.07
E19: K 3.33 | V 4.53 | L 3.16 | W 3.61 | G 3.09 | D 3.4 | Q 3.23 | F 3.69 | R 3.15 | P 4.23 | N 4.01 | M 4.05 | I 3.37 | T 4.03 | S 3.62 | Y 3.95 | H 4.12
